# According to IntAct's records for PubMed 31515488:
# B1: Mothers against decapentaplegic homolog 4 (Homo sapiens), Q13485 (parent)
# chain: MDNMSITNTPTSNDACLSIVHSLMCHRQGGESETFAKRAIESLVKKLKEKKDELDSLITAITTNGAHPSKCVTIQRTLDGRLQVAGRKGFPHVIYARLWRWPDLHKNELKHVKYCQYAFDLKCDSVCVNPYHYERVVSPGIDLSGLTLQSNAPSSMMVKDEYVHDFEGQPSLSTEGHSIQTIQHPPSNRASTETYSTPALLAPSESNATSTANFPNIPVASTSQPASILGGSHSEGLLQIASGPQPGQQQNGFTGQPATYHHNSTTTWTGSRTAPYTPNLPHHQNGHLQHHPPMPPHPGHYWPVHNELAFQPPISNHPAPEYWCSIAYFEMDVQVGETFKVPSSCPIVTVDGYVDPSGGDRFCLGQLSNVHRTEAIERARLHIGKGVQLECKGEGDVWVRCLSDHAVFVQSYYLDREAGRAPGDAVHKIYPSAYIKVFDLRQCHRQMQQQAATAQAAAAAQAAAVAGNIPGPGSVGGIAPAISLSAAAGIGVDDLRRLCILRMSFVKGWGPDYPRQSIKETPCWIEIHLHRALQLLDEVLHTMPIADPQPLD
# B2: Transcription factor 12 (Homo sapiens), Q99081-3 (parent)
# chain: MNPQQQRMAAIGTDKELSDLLDFSAMFSPPVNSGKTRPTTLGSSQFSGSGIDERGGTTSWGTSGQPSPSYDSSRGFTDSPHYSDHLNDSRLGAHEGLSPTPFMNSNLMGKTSERGSFSLYSRDTGLPGCQSSLLRQDLGLGSPAQLSSSGKPGTAYYSFSATSSRRRPLHDSAALDPLQAKKVRKVPPGLPSSVYAPSPNSDDFNRESPSYPSPKPPTSMFASTFFMQDGTHNSSDLWSSSNGMSQPGFGGILGTSTSHMSQSSSYGNLHSHDRLSYPPHSVSPTDINTSLPPMSSFHRGSTSSSPYVAASHTPPINGSDSILGTRGNAAGSSQTGDALGKALASIYSPDHTSSSFPSNPSTPVGSPSPLTGTSQWPRPGGQAPSSPSYENSLHSLKNRVEQQLHEHLQDAMSFLKDVCEQSRMEDRLDRLDDAIHVLRNHAVGPSTSLPAGHSDIHSLLGPSHNAPIGSLNSNYGGSSLVASSRSASMVGTHREDSVSLNGNHSVLSSTVTTSSTDLNHKTQENYRGGLQSQSGTVVTTEIKTENKEKDENLHEPPSSDDMKSDDESSQKDIKVSSRGRTSSTNEDEDLNPEQKIEREKERRMANNARERLRVRDINEAFKELGRMCQLHLKSEKPQTKLLILHQAVAVILSLEQQVRERNLNPKAACLKRREEEKVSAVSAEPPTTLPGTHPGLSETTNPMGHM
# partner: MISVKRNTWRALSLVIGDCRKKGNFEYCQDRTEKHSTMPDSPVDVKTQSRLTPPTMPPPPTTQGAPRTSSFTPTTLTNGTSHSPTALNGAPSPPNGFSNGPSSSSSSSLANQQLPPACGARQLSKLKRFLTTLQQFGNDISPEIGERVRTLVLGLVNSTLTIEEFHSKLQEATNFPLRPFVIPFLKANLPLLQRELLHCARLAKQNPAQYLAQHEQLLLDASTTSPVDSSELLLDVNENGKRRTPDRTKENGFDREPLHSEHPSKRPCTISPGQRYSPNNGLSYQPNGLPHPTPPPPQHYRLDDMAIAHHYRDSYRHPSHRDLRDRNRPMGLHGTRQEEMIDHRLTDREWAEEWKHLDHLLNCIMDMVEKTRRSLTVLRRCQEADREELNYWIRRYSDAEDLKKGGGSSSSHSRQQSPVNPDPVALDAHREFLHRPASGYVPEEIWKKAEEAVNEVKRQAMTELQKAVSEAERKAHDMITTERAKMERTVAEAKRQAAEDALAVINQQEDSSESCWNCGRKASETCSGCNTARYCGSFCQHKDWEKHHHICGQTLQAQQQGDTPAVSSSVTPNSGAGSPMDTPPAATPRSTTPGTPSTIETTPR
# B3: F-box/WD repeat-containing protein 1A (Homo sapiens), Q9Y297 (parent)
# chain: MDPAEAVLQEKALKFMCSMPRSLWLGCSSLADSMPSLRCLYNPGTGALTAFQNSSEREDCNNGEPPRKIIPEKNSLRQTYNSCARLCLNQETVCLASTAMKTENCVAKTKLANGTSSMIVPKQRKLSASYEKEKELCVKYFEQWSESDQVEFVEHLISQMCHYQHGHINSYLKPMLQRDFITALPARGLDHIAENILSYLDAKSLCAAELVCKEWYRVTSDGMLWKKLIERMVRTDSLWRGLAERRGWGQYLFKNKPPDGNAPPNSFYRALYPKIIQDIETIESNWRCGRHSLQRIHCRSETSKGVYCLQYDDQKIVSGLRDNTIKIWDKNTLECKRILTGHTGSVLCLQYDERVIITGSSDSTVRVWDVNTGEMLNTLIHHCEAVLHLRFNNGMMVTCSKDRSIAVWDMASPTDITLRRVLVGHRAAVNVVDFDDKYIVSASGDRTIKVWNTSTCEFVRTLNGHKRGIACLQYRDRLVVSGSSDNTIRLWDIECGACLRVLEGHEELVRCIRFDNKRIVSGAYDGKIKVWDLVAALDPRAPAGTLCLRTLVEHSGRVFRLQFDEFQIVSSSHDDTILIWDFLNDPAAQAEPPRSPSRTYTYISR
# partner: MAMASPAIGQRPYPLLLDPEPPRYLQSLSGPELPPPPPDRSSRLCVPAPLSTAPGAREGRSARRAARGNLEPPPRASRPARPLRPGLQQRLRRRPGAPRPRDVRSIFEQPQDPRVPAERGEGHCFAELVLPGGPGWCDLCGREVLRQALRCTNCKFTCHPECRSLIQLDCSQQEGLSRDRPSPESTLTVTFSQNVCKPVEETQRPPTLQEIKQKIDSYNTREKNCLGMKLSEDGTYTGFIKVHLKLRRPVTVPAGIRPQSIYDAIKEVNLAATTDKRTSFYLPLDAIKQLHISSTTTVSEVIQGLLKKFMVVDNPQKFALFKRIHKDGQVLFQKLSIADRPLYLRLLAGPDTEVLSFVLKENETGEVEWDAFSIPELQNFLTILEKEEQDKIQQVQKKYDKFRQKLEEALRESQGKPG
# B4: UPF0193 protein EVG1 (Homo sapiens), Q9BZE7 (parent)
# chain: MASQKQMEVVTKGTGFRRRPKTITYTPGTCELLRVMMKESKLTNIQQRHIMDIMKRGDALPLQCSPTSSQRVLPSKQIASPIYLPPILAARPHLRPANMCQANGAYSREQFKPQATRDLEKEKQRLQNIFATGKDMEERKRKAPPARQKAPAPELDRFEELVKEIQERKEFLADMEALGQGKQYRGIILAEISQKLREMEDIDHRRSEELRKGLATT
# B5: Ubiquitin-like protein 4B (Homo sapiens), Q8N7F7 (parent)
# chain: MFLTVKLLLGQRCSLKVSGQESVATLKRLVSRRLKVPEEQQHLLFRGQLLEDDKHLSDYCIGPNASINVIMQPLEKMALKEAHQPQTQPLWHQLGLVLAKHFEPQDAKAVLQLLRQEHEERLQKISLEHLEQLAQYLLAEEPHVEPAGERELEAKARPQSSCDMEEKEEAAADQ
# partner: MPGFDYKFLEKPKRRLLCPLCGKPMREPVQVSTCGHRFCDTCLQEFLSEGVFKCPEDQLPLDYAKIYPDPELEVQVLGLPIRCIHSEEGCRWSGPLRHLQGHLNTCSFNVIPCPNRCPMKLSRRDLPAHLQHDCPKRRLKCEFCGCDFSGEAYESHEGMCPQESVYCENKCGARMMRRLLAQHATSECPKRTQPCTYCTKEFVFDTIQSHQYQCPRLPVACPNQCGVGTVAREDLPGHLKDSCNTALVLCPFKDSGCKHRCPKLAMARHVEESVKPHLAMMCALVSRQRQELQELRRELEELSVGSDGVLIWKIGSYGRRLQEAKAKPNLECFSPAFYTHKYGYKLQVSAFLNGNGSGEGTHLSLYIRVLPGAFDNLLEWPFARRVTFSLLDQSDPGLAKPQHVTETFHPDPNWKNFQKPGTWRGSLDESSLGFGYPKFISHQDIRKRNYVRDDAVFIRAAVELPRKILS
# B6: Tripartite motif-containing protein 59 (Homo sapiens), Q8IWR1 (parent)
# chain: MHNFEEELTCPICYSIFEDPRVLPCSHTFCRNCLENILQASGNFYIWRPLRIPLKCPNCRSITEIAPTGIESLPVNFALRAIIEKYQQEDHPDIVTCPEHYRQPLNVYCLLDKKLVCGHCLTIGQHHGHPIDDLQSAYLKEKDTPQKLLEQLTDTHWTDLTHLIEKLKEQKSHSEKMIQGDKEAVLQYFKELNDTLEQKKKSFLTALCDVGNLINQEYTPQIERMKEIREQQLELMALTISLQEESPLKFLEKVDDVRQHVQILKQRPLPEVQPVEIYPRVSKILKEEWSRTEIGQIKNVLIPKMKISPKRMSCSWPGKDEKEVEFLKILNIVVVTLISVILMSILFFNQHIITFLSEITLIWFSEASLSVYQSLSNSLHKVKNILCHIFYLLKEFVWKIVSH
# partner: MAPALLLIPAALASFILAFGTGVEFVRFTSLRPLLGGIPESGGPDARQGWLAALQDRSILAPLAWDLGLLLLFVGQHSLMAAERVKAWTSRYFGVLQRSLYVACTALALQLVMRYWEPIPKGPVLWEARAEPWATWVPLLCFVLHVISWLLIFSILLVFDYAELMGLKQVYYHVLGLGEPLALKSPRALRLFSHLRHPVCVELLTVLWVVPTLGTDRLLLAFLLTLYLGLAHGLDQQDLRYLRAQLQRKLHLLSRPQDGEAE
# B7: Heat shock factor protein 2 (Homo sapiens), Q03933 (parent)
# chain: MKQSSNVPAFLSKLWTLVEETHTNEFITWSQNGQSFLVLDEQRFAKEILPKYFKHNNMASFVRQLNMYGFRKVVHIDSGIVKQERDGPVEFQHPYFKQGQDDLLENIKRKVSSSKPEENKIRQEDLTKIISSAQKVQIKQETIESRLSELKSENESLWKEVSELRAKHAQQQQVIRKIVQFIVTLVQNNQLVSLKRKRPLLLNTNGAQKKNLFQHIVKEPTDNHHHKVPHSRTEGLKPRERISDDIIIYDVTDDNADEENIPVIPETNEDVISDPSNCSQYPDIVIVEDDNEDEYAPVIQSGEQNEPARESLSSGSDGSSPLMSSAVQLNGSSSLTSEDPVTMMDSILNDNINLLGKVELLDYLDSIDCSLEDFQAMLSGRQFSIDPDLLVDLFTSSVQMNPTDYINNTKSENKGLETTKNNVVQPVSEEGRKSKSKPDKQLIQYTAFPLLAFLDGNPASSVEQASTTASSEVLSSVDKPIEVDELLDSSLDPEPTQSKLVRLEPLTEAEASEATLFYLCELAPAPLDSDMPLLDS
# Variants of: B1
# Details: with smad9_human SMAD9, O15198
# smad9_human SMAD9, O15198, sequence (O15198 whole entry): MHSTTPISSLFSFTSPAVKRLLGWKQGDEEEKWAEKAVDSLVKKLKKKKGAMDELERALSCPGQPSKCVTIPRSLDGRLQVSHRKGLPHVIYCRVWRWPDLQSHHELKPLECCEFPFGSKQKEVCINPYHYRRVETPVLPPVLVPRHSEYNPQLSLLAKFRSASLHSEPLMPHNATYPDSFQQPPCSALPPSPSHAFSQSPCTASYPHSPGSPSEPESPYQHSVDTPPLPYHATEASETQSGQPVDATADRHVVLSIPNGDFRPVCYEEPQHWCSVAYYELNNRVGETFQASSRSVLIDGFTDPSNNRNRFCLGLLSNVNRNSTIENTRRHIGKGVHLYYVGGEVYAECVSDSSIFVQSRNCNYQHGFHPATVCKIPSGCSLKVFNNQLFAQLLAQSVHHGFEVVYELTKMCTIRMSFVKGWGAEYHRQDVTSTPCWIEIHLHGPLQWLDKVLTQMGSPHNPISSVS
row,effect of a mutation on the interaction,Variant
1,disrupting interaction strength,C324R
2,disrupting interaction strength,R361C

# Variants of: B1
# Details: with smad3_human SMAD3, P84022
# smad3_human SMAD3, P84022, sequence (P84022 whole entry, looked up): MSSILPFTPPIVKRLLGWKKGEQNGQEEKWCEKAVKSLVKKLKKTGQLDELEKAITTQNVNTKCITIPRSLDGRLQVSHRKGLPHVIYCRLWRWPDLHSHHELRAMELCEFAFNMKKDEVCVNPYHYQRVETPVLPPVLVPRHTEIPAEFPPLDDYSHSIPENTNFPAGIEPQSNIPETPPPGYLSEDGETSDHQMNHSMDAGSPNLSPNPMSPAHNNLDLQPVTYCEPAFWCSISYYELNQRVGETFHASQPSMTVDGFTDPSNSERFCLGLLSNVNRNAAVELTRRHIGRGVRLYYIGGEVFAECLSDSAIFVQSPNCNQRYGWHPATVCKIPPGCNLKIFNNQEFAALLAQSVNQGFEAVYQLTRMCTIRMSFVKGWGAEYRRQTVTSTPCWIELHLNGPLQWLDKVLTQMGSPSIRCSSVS
row,effect of a mutation on the interaction,Variant
1,disrupting interaction strength,C324R
2,with no effect,T174N
3,disrupting interaction strength,R361C

# Variants of: B1
# Details: with ews_human EWSR1, Q01844
# ews_human EWSR1, Q01844, sequence (Q01844 whole entry): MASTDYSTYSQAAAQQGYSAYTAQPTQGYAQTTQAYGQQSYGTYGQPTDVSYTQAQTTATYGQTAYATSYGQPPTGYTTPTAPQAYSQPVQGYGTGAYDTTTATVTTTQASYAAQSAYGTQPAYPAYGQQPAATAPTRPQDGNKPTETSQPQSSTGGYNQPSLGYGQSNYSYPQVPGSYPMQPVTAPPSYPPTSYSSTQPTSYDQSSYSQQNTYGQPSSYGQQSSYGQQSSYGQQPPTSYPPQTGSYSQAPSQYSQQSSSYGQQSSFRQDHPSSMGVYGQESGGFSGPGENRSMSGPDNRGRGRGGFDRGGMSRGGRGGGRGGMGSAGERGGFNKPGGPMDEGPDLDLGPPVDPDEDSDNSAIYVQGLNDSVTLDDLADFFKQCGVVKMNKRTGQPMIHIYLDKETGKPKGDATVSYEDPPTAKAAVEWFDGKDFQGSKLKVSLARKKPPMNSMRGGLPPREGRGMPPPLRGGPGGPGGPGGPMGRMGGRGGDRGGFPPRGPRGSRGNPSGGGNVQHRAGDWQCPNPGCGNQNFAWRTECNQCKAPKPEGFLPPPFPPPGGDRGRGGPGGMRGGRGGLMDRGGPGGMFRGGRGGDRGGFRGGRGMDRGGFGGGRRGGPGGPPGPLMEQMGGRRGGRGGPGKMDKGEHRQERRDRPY
row,effect of a mutation on the interaction,Variant
1,with no effect,T174N

# Variants of: B2
# Details: with mtg8_human RUNX1T1, Q06455
row,Variant,effect of a mutation on the interaction
1,Y120C,with no effect
2,A155T,with no effect
3,S446F,with no effect

# Next, values leading:
row,effect of a mutation on the interaction,Variant
1,with no effect,R74G
2,with no effect,N606H
3,with no effect,A482V

# Variants of: B3
# Details: with rasf5_human RASSF5, Q8WWW0
row,Variant,effect of a mutation on the interaction
1,R594H,with no effect
2,L8M,with no effect

# More lines, now with the values ahead:
row,effect of a mutation on the interaction,Variant
1,with no effect,P592H
2,disrupting interaction strength,I439V
3,disrupting interaction strength,T414A
4,with no effect,T601S

# Variants of: B4
# Details: with ccdb1_human CCNDBP1, O95273
# ccdb1_human CCNDBP1, O95273, sequence (O95273 whole entry): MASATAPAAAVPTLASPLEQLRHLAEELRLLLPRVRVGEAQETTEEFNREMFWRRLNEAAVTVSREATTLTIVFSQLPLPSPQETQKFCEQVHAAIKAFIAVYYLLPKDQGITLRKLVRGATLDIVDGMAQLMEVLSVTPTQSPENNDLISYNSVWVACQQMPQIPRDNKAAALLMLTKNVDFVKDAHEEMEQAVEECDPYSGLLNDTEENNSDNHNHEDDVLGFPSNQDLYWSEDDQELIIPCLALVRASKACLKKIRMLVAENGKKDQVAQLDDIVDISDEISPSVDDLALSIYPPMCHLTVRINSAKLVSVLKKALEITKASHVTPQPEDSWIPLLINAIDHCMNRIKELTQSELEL
row,effect of a mutation on the interaction,Variant
1,with no effect,M136L

# Variants of: B5
# Details: with traf4_human TRAF4, Q9BUZ4
row,effect of a mutation on the interaction,Variant
1,disrupting interaction strength,R121H

# Variants of: B6
# Details: with nrm_human NRM
row,effect of a mutation on the interaction,Variant
1,with no effect,R258C

# Variants of: B7
# Details: with mtus2_human MTUS2, Q5JR59
# mtus2_human MTUS2, Q5JR59, sequence (Q5JR59 whole entry): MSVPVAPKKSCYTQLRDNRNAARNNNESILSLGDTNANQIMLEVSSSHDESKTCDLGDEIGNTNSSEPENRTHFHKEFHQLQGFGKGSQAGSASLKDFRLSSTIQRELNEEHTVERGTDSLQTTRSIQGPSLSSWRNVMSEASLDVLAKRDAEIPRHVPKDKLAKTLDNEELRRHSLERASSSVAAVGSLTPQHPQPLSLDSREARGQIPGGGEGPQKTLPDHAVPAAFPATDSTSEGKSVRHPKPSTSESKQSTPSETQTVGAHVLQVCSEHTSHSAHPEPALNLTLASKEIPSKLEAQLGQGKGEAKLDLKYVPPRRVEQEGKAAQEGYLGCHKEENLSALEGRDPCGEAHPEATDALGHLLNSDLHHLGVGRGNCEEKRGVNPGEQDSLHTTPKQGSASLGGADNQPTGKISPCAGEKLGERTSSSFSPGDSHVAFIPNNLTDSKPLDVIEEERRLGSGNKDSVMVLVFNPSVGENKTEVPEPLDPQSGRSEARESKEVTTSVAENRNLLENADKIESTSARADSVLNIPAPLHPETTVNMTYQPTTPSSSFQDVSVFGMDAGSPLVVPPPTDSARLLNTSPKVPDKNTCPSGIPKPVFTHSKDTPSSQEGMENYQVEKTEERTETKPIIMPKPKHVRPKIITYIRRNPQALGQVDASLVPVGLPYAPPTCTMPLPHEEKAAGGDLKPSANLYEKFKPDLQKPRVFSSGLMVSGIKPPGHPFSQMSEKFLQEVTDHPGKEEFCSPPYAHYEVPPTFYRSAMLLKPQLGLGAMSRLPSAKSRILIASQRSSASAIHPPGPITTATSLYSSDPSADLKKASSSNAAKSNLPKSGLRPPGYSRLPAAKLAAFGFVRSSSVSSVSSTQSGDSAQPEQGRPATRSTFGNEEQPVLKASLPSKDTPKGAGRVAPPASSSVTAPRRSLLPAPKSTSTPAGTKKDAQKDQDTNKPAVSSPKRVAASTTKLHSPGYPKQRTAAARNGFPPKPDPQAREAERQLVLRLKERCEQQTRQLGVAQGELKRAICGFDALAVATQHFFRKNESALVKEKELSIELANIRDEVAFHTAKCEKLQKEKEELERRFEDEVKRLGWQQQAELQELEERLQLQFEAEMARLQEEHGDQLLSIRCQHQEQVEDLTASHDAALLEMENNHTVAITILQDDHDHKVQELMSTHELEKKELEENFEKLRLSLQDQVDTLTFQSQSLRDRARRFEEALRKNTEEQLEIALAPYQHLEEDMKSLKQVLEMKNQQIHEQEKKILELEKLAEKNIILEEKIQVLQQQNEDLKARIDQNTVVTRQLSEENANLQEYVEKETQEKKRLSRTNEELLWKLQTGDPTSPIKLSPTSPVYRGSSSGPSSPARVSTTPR
row,effect of a mutation on the interaction,Variant
1,with no effect,D222V

# Variants of: B7
# Details: with nup62_human NUP62, P37198
# nup62_human NUP62, P37198, sequence (P37198 whole entry): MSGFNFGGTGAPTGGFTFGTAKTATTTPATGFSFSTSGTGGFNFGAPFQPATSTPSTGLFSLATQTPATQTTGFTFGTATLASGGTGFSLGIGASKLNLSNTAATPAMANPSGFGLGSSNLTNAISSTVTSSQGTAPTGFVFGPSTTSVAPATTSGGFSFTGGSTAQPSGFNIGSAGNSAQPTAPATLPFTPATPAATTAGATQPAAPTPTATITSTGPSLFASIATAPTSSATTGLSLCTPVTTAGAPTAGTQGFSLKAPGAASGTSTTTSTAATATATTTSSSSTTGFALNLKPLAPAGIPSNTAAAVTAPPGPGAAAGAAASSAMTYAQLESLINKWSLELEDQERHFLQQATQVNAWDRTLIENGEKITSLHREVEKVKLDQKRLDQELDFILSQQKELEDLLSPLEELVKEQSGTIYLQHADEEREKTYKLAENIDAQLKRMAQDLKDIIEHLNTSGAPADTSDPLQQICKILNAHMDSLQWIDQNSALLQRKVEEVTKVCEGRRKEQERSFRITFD
row,effect of a mutation on the interaction,Variant
1,with no effect,D222V

# Variants of: B7
# Details: with wdr5_human WDR5, P61964
row,effect of a mutation on the interaction,Variant
1,with no effect,D222V

# Variants of: B7
# Details: with tpm3_human TPM3, P06753
# tpm3_human TPM3, P06753, sequence (P06753 whole entry): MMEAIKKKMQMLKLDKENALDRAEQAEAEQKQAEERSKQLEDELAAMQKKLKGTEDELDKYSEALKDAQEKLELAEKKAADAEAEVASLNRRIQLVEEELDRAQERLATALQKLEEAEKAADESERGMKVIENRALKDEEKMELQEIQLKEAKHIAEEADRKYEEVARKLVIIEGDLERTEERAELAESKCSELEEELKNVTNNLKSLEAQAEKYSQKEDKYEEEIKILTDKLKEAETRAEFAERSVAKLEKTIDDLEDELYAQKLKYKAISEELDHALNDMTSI
row,effect of a mutation on the interaction,Variant
1,with no effect,D222V
